Data published in a protein production outcome set (Wang et al. 2014).

Assay: label from the status in PepcDB records

Sequence	protein production
MRRSSSKKKSGQSTESVTTDLFRSASSKASNKEMDRIDHLFNQYANKSSSLIDPEGIEELCSNLEVSHTDIRILMLAWKMKAEKQGYFTHISFPDMGDYNPELAWPLILDNFVEWIQEKQA	failed
MRSFSKFAQIVFFGLLIVSAIFVVSCGGSGNAVLNKDKPLVFFNRQPSDPTTGEIDMTSMNWNDKTYYVGFDAAGGGAVQGKLITDFLVSAETSLDRNGDGIIGYVLCIGDVGHNDSKARTEGIRKALGTWAGSTDPGKTKQGSITIAGKTFDVVELEGKAMTGTDGSTWNANAATEAMGGWATKFADQIDMVVSNNDGMAMGCLQASNYPAGVPIFGYDANADAIEAVGKGLLTGTVSQNVDAQATATLQVLRNLLDGLTGTDVYTKGITAEDSYGNKISAPVQYWADVKAVMAANSGVTKANYENYLGGTRDAGIKQTNAPKKKVLLTIYNSGDNFLSSSYLPALKYYAPLLNIELTIVQGDGQNESSCLDKFTNLNNFDAFAVNMVKTNSGSNYTDKLKY	failed
MRSGFRRCCPAIQRFKKVQRILLIVLFLNLAVAFAKIIYGTLTSTLSMTADGYHSLFDGVSNIVGLVGSFIAARPPDKEHPYGHQKYETIASIFIALLLLYVGVEIFRHALDRFLIRSVPEVTAISFLVIIGTMCINYLVTRYEYRQGLALRSQVLIADSLHTKSDIYVSLSVILSLAAVKLGFPLLDPLIAVLISFLIFRAGFRIMKESSKVLLDMSRLEEDEICNLVLGVEGVLGCHKIRTRGGMGDIRIDMHVLVQADLTLEEAHLISHRVSKMLKAEYNDVTDVVVHLEPALPQGSYSKKTT	failed
MRSHNLFGDMCEAFMTKYVMTELRPKTQTLYKSTFNKYVTPYKNIDIERYKYTDWIAYFDWVKKESSSANAGSVLKRFKAVANWAKARGQIKHSHLIDIPIKLEHHHHHH	failed
MRSIAMQAADLYVLQTAQSWLDAGQAAVLLTVARTWGSSPRPPGAMMAIRADGAVAGSVSGGCIEDDLIDQIRQRGIAALCPGARPALATYGVDGEQARRFGLPCGGTLQLVLEPLGAHSRLADLLARLRAHQTVRRSVRLADGAVTLEPAAADAEPRLDGAGFASVLGPRHRLLVVGAGQLSRYLCEMAIALDFDVTVSDPRQEYRAGWQVEGVALTTAMPDDMVIAARPDARTAVIALTHDPKLDDLALIDALQTPAFYVGALGSRANHARRVARLREHFGLTPAQLARLRGPAGIYIGSRTPPEIALSIMAEIVAGKNGAPLPPAASVAAGKARQPGGAGVIQAGLCATL	failed
MRSNTFIQFAATLVAFVAACLFPAWSMAATHNVVLSAETLPNGQPAYKLLSHTSSNGTVPGYATEATIPGPTLFIKTGDKINVQLTNNTQSPVSFTAPGLSTGNSALAAPGQTKSYRLNARKAGTFAYHDEKAPMLGLFGAIVVDESNGHVQSYVDGDGTIVSTKRSQLSKEFVLFMVGSTFWGAEISRNGNQQPLWANPDLGAYQDDLLRFHVLAVGPGHTFHLHAHRWIEPGSSQKTPHIIDTHILDDLNNSHVFTIKAGTGVGPGVWQLHCHLISHMQSGMNSRIHVVARDSGQSADSIVGASPSGAIFLNDSDQPGLVTFIVSDEPAGWFRSARGDALSPVTHTKSLEIIPPGSSVHFVMSDTAGVHTITSLLWPSEAGHNDHGGDHFMIPFDETKAYRGGAILKLNVPGLYVFTCKIHPFMFAAVIVDDPATDGLDLGNTIDLISGVKNLPTSSDLATRLLHTFFVTTVPKNWQDFTSPNPWKIAYPDVDVVVDIGKVSLPAVLNARYGNDISLSPLPRPAVPGIGEVWVDTQFEKTAGKTKPGTITVVDTSNWTLKRKIALPQINMNNPHNMWPNRDHSIVYTTQWFDNKLTAIKQKTGKLASNVQVGDSPSHVMTLPNTDDITVAINGENDIVIIPAGTTKVNYALLTQSHGQAPGNPHGHWISADGKRIITPNINTHDAGFYDVEDGKIVARTATGEGQPGAHPIAIGMLPDSSKVYAANLLHHSVSVMDGDGNFIKNINLIEHYDPISGAINGPIGILPIQSPVSPDGKVMVTASYGGQIVVIDTRTDSIVKSLPCDPGCHGANFGAKKGGGYYAYITNKFSNRLIVVDPDPNGDGDLSDAEIAGAVTLVADSRVPKDDKISSLAGFGGQGIVALPNVYNGWVQNLNSQWSAGLTDQQRNPVQ	failed
MRSRVVREGSVGLMLVAGVGALAGLIFWLRGVSLGQDRYDVIVEFNDTAGLTVGTPVIYRGVQVGQVIDITAQSNSVLVRIQIQPASLAIPRDSVISAQISSLLGSPNLTIEPKRNIPAEVLAKTQPRSPNCDRAVILCNGSVVEGAQSASFASILTSIATLVSEIEQAKLVNTLSQTSRDASEAARSIRQLSSSLQQQIPPLRETLNAAQGAASQVEAAIAENRQSVRTTLTNLESSSQELQDILNSLEPAIDKANSGKLVDNLNELSANLAVASRNIRDVSTALNSPENLLTLQQTLDSARITFQNAQKITTDLNRLTGDPAVIENIRRLINSLGRLLSSTGALQEQVTDLKSLPLLPVSESPAGEAVVRRPNQP	failed
MRSSKMDMPIVLSKRHRRLRSMKDCEPGLPYNEIVENGKRIDLCYSKQYKKYTKKIEIRVGTSILHNKLLRIFPNIVKIYSKHFINLPDLITENTEKRELIFIELENLIIGGGTSGLGVLSEISKEEKTLLISSNIESNTDIPYPLPQINKDEFSKLLRDTINENKDRILEGILLGKFDEGIGFLTKDKILMVRAKRVFLATGGRYIPPIFDGNDIPGIISKNLYLRYGNRITKAIALGNSDDIIKVLFKVEKRVIINNGVLFLSKYYKELIDELGVEIINTNNLKVKREKGGMLKIITNERSFDSNILVYAIVKQPKIDHSYNIGIPYNFSEYFHIYMPIHSIEGKTNDNIYIVGGMRGISDEYTSFLSGKTAVNEKYLDEFINNLKDYTYIYDYYYQKNPKENPSPYIYGNKGYVCECEDITLSEVNRQVGRGFSKVEEIKRTIGLGTGECQGKLCTYSLGSFLGDRQLITFRTPLYRMVI	failed
MRTDFNVFTTGGAPMKQIIRQFSIGTVAYAIMQVASAQVAITNVVPMNIPGQGTEIRVMFNGLPPQPQAYQLEQPARLILDFDKAGQKLAKSLIPVTTNEASSIDVSSDDKRARVVVNLKDAGAFTTRVEGNVFILKINNIQSTATPVATSAPAPQQGIGNIGFQRGAQGEGLVVIDLQGTNTPVDVQQQGSKVVVRFPGIKIPTHLARRLNTTDFATPVASIDSYNDGSNGVISIQSTGSYEYMAYQAENKLTISLKRPQDNVRLNSKNNQNYTGKKISLDFQDIEVRRVLQLLADFTNINMVTADSVQGNITLHLKDVPWDQALDIILKTKNLDKRRNGNVIWIAPVSELIKSEEDEAKAIAQSTKLAPLQTEYILLKYAKAADIEKLITQGRNSGTSNSNTNGSATVEPLGDSVGTLLSPRGTISLDPRTNTLIINDTSQKIDQIRKMIDLLDIPVKQVMIEARIVRATTSFSKEMGVKWGILSQGINQNSNLLVGGSETTLWNLRNPDSNGTYTIERPDNLNVDLGVTTTGASSIAFGLISLSDFMLDLELSALQADGYGEVISTPKVMSADKQKAKVATGVEVPYQSTTNSAAGSTATTSFKEALLSLEVTPNITPDGKILMELNIANDSINSYAQNGEAILNKNTINTNVLVNNGETVVLGGVFEQTTNNAVTKVPFLGDLPYVGRLFKKTAKSEAKNELLIFVTPRIVNDTIVGNH	failed
MRTILFKSVPFSKEAVTLALESGVDGIIVPEKHVAPVQALARCKVLCDDAVCTLELTAKADEEEAASRLAAGEDVVLARGWEIIPVENLLARSDRVTVEVASLDEARLAAGILERGVSTVVVLPQAVTELKAIVQELKLSQGRIDLAPAVVTAVRPVGLGHRVCVDTMSLLRTGQGMLVGNSSAFTFLVNAETEHNEYVAARPFRINAGAVHAYAVMPGDRTTYLEELRSGSEVLIVGADGATTIATVGRLKVEVRPMLLVEARVGDTVGAVFLQNAETIRLVRADGTPVSVVALREGDEVLCRTDVAGRHFGMRITEDIREA	failed
MRTLNKDEHNYIKQIANIHETLLSQVESNYKCTKLSIALRYEMICSRLEHTNDKIYIYENEGQLIAFIWGHFSNEKSMVNIELLYVEPQFRKLGIATQLKIALEKWAKTMNAKRISNTIHKNNLPMISLNKDLGYQVSHVKMYKDID	not failed
MRTRIERTEEMVEQLPLVSVLIPTYNRPSYFEKALCSVLEQTYPNIEIIVGDDSTNDETEKLLQKYLCDHSNIIYIKNRSTLGQFENALMLFNEANGEYINFLMDDDVFHVNKIEKMMKYFFNDLDNEIKLVTSHRQVIDDKGKELRHIYSTVRLFEEDTIIEGTELGNKVIVDQKNYIGEPTTVLFRKNDLQEPYGIFDKRRYLCNVDIASWLSLLSKGKAVYIAETLSYFRLHPDQQLNESNKMMDGLEDFSHSIIAGEQYGFLSTEKELDKAITNFLDYARRIVPSSILYTLDYYQKIRAKKINIEKKKQHINNNSSLPKVSILIPAYNRPYYLELALNSALNQTYENIEIIISDDSTNNEVNAMIQPYLREYECITYVKNETPLVAENFNKCVELANGDYMNFLLDDDLFHHEKIERMMKYFLTLENISFVTSYRELIDENGEILPPSTLNMKIAKETTLFEGKELGNYMLKNLKNVVGEPTTVLFNRDLFDGKFGYFKGKAYSAINDIATWLDMMRKGKVVYIHEPLSYFRQHSGQNQKQMHFILMTIEEWIELIIDAYNSGFLSSESEYKESLSYCLENAGFIVKDAVRNGELDQIYNEKIKKGLNKLVAHMFEKESCYCQYCNQQFEKFSPWPAHYDFPKYKFEMWNKDTGICPVCNSMDRERLYRAYIETETDLLNRNYTMLHIAPEAKLRDWFNEYKNITYVCGDLEPKDPLMKEIDVTRITYDSNTFDVILCSHVLEHVPDDDKAMRELYRVLKPNGWGIIQVPIVMNVDFIIENELIVTPQLRKLAFGQEDHVRIYNQSGFIQRLMNAGFKVELYNIAEKQGMKGARKFGLSETDMLYIVRK	failed
MRTSAFVPVLLFALLGALVGCSGGTELTYSGPEEAYKKGVAEMEEGDHQQAIRFFRAVFEYGRGNEWAPDARFKLAMAQRGLNKHLVAANEFQRFTQLYRNDELLPRAEFERANSYYLRSPSYRLDQSDSEQAISLFRLFIDRHPNHELVPEAEEKINELRAKLARKKYEAGRLYEQRDMWQAATTVYERAFDQYPDTPWADDALLGAVRTYIRYADRSVESKQAERYQKAIENYNRLTQLFPESTLLGRAEDLYSEAREKLDRAQAQQGEQSLAQEDASSGSN	failed
MRTTAAEEAGLETETARRRFSRASLVNVAGNAVKILVEGAVGLAFGSVALLADAAHSVADLVASAVVLVWGRSVYTDPDENHPHGHQRVEPLAALFVGSLIVLLGLNLFYESATGLVAGPEVQFHPLLVGALLFAMADMYLLYWYTTHINESVGSSALEALAIDCRNDIYTTIAALCGVIGVFFGYPLFDAVAGGLVSVLVVYQGFEISRENVSYLVGASPSDQQRQRVVETLTDHPAVHGAHDVAVFYDGTDIEVEAHVEVDGELTLVEAHDIETELVSALRSLESVGDVHLHLDPAGIGEWKDAAVNEQRGPETQTGSPKQ	failed
MRTVLNILNFVLGGFATTLAWLLATLVSIVLIFTLPLTRSCWEITKLSLFPYGNEAIHVDELNPAAKSVLMNTGGTLLNIFWLLFFGWWLCLMHIASGIAQCVTIIGIPVGIANFKIAAIALWPVGRRVVSVETARAAREANARRRFE	failed
MRTVLNILNFVLGGFATTLGWLLATLVSIVLIFTLPLTRSCWEITKLSLVPYGNEAIHVDELNPAGKNVLLNTGGTVLNIFWLIFFGWWLCLMHIATGIAQCISIIGIPVGIANFKIAAIALWPVGRRVVSVETAQAAREANARRRFE	failed
MRTVTGAILAMNLEVKDFVHRDVEEADRRLREIGARKILLQLPDGLKPYAFDYFTYLSQRYDVILSSSPVYGACDIGPSYLYDRVDAIVQVGHSIMRNVKYPRPVIFIEHYRTVDVEDINTEALKNYRRIGLIYSIQYRPVADRVKRILESKGFEVIIGRSDRRMTYDGQVLGCNFSSVHSVEAEVEAFVIVSTGSFHALGSQISTERPVFLLDLNEMSLRSMEKEADTFIRKRYAQIYRAMDAKRICFLVDTRIGQRREKLARMLMDRARDLGKEAVLAYTDNISDQDIQNMGCDLAVYTGCPRVPIDDQDRFTVPVLTPAEFSMAFFKSSKRYVLDEIVSVDEFTDQLEHHHHHH	failed
